The text below walks through data of patent US20090075340A1.

For this test, the target named is HLA-Cw4 on LCL 721.221-Cw4 cells (human). Nature of the test: cell-based or functional assay.

Consider “KIR2DL1 expressed on YTS-2DL1 NK cells (from UniProt P43626 22-348)”, for which the killing of LCL 721.221-Cw4 cells by YTS-2DL1 in the absence of any anti-KIR mAb was found to be 5%.
